Measurements reported in the supplement of paper PMC9170038.

System: MS2 coat protein
Experiment: apparent KD of MS2 coat protein; higher = weaker reporter binding
Conditions: Eterna round: R107
Procedure: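 RNA-MaP round R107: designed RNA switches with theophylline, tryptophan, arginine or FMN aptamers are transcribed on-chip within common flanks. They are titrated with SNAP-549-labelled MS2 coat protein in RNA-MaP buffer (100 mM Tris pH 7.5, 80 mM KCl, 4 mM MgCl2), without ligand or with the indicated ligand. Median apparent KD per design.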

[1] = input ligand: theophylline 20 uM
[2] = input ligand: theophylline 2 mM
[3] = input ligand: tryptophan 2.4 mM

Row | Sequence | apparent KD of MS2 coat protein (input ligand: arginine 13.2 mM) [nM] | apparent KD of MS2 coat protein (input ligand: none) [nM] | apparent KD of MS2 coat protein [1] [nM] | apparent KD of MS2 coat protein [2] [nM] | apparent KD of MS2 coat protein [3] [nM]
1 | GGGUAAGAUCCGGAUACCAGCGAACAUGAGGAUCACCCAUGUGAAAUAAGAUAGACUAAACGCCCUUGGCAGCCGAAAUAGCGUU [Same State Theophylline B GF 4] | 17.9 | 46.6 | 84.7 | 48.9 | 44.1
2 | UAAAAUAAAAGGGUGAAGGUAUAAACAGAUACCAGCCAGAUAACUGGCCCUUGGCAGCUGAAUGACAUGAGGAUCACCCAUGUCU [TheoAS 21 #OpenEnded #Ms2Late] | 13.1 |  | 17.7 |  | 14.5
3 | CGCGUCCCGGACGAUACCAGAUAUGAGCGACACAUGAGGAUCACCCAUGUCAAUCAUGAGAUCCCUUGGCAGCGUUUGCACAACU [theeternabot_sameState_MS2_Theo_B_8] | 81.2 |  | 210 |  | 183
4 | AACAUGAGGACGGAUACCAGUCACAUGAGGAUCACCCAUGUACAUGAGGAUCACCCAUGUGGCCCUUGGCAGCCGCAUGUGAUCA [Exclusion Theophylline B 4] | 124 |  | 308 |  | 412
5 | GACGCAUGAGUUGUAAAAGCUCAUGGGUCGCGAGGACCGGUACGGCCGCCACUCGGCUGUACAUGAGGAUCACCCAUGUCAGGGU [#1 Same State - Tryptophan A Attempt #28 (HarryS)] | 154 |  | 434 | 886 | 
6 | ACGUAAUGCAGAAGGAGCGUCAUUUUAAAACAUGAGGAUCACCCAUGUAAUAUUUUUGUGUGACAGGUAGGUCGCUGAAGUACGA [JR_SSArginiB_Sub007] | 13.9 | 13.4 | 17.7 | 14.4 | 11.8
7 | CUGUACAUCUCGGCCGCCACUGCAACAUGUACACAUGGACAUGUACAUGAGGAUCACCCAUGUGGCAGGACCGGGAGGUGUGCAG [SSTryp B #28] | 99.8 |  | 211 | 309 | 
8 | AGCUCGCAUCCUCUAGCGUCAAAGACGCCUCGAGGACCGGUACGGCCGCCACUCGAUAUGAGGAUCACCCAUAUCAAAGCGAGCA [TrypAX 2 #SwitchBubble #AlternativeMS2 #MS2Late #CuTurnoff] | 32.7 | 53.8 | 59.5 | 75.5 | 581
9 | GGACUAACCAGAAGGAGCGACACAGCAGAAACUGCAAAUCCUCCGCACGAGGAUCACCCGUGUCAGGUAGGUCGCUGGUUAGUCG [ArgBX 28] | 37.4 | 49.5 | 55.9 | 71.6 | 42.7
10 | UGUAUGUGAUUUGAUACCAGUCCAACUGGUAAAACAUGAGGAUCACCCAUGUAAAAUUGGGACCCUUGGCAGCAAAUCGCAUACU [SSTheo B #21] | 144 |  | 346 |  | 534
11 | GGUUGGUGUAGAGAUAUAUUGAUUACUGAAGGAGCGGGAACAAACCCAGGUAGGUCGCAGAGAUCCACAUGAGGAUCACCCAUGU [!0.N] | 35.2 | 31.6 | 58.3 | 39.3 | 41.5
12 | ACAUGAAGAACAGCGGUGGGCGCGCUCGAUACCAGUACUUUGAUUUACCCUUGGCAGCGACAUGAGGAUCACCCAUGUGAGAUGA [XTheo A #1] | 16.9 |  | 22.4 |  | 18.6
13 | CAAAAUAUCGGAAGGAGCGCGGGUAGGCGGGUUGGAUCACAUGAGGAUCACCCAUGUAAAUCGCAGGUAGGUCGCCGAUAACGCG [XArg-B27] | 52.9 | 19.9 | 60.4 | 37.9 | 30.1
14 | UGGUGUAGGGUAAAUAGGAUUAGUACAGAAGGAGCGCGAAUAAACGCAGGUAGGUCGCUGGAAUAAACAUGAGGAUCACCCAUGU [Same State Arginine A GF 27] | 17.4 | 19.2 | 27.4 | 21.5 | 20.7
15 | UGUACAUAAUUAGGUUACCUAUGUACAGAAGGAGCGUCGAUGACGACAGGUAGGUCGCUGUUAACAUGAGGAUCACCCAUGUACA [Arg A Ex t4] | 37.7 | 44.4 | 46.2 | 57.3 | 42.4
16 | UGGCAAGAGGGAAGGAGCGUCAGCUGAGUCACAUGAGGAUCACCCAUGUCGCACAUAGUGUGACAGGUAGGUCGCCCUCUACCCU [Rearian] | 67.9 | 222 | 209 | 217 | 148
17 | AUAAUAAAGACGGCCGCCACUAUAAACAUGAGGAACAUGAGGAUCACCCAUGUAUGAGGAUCACCUAGGACCGGGUCAAAUAUUA [AstrosExyTryB#3] | 36 | 49.4 | 70.1 | 45.9 | 44.7
18 | UGUAUGUGAUUUGAUACCAGACCAGCGGGUGUUGCAUGAGGAUCACCCAUGUAGGUUUGGGUCCCUUGGCAGCAAAUCGCAUACU [SS Theo B #24 Ms18] | 289 | 482 | 438 | 127 | 523
